± gives the uncertainty stated by the source.

The data set can be described thus: abundance fitness (aPCA) (normalised: wild type 0, dead -1); higher = more abundant; growth selection in yeast, the domain comes from the species named. The conditions noted are these: Homo sapiens.
Regarding “DnaJ homolog subfamily B member 1 E62F, P25685”, the abundance fitness was -0.519 ± 0.12.

Substance “DnaJ homolog subfamily B member 1 E62G, P25685” returned an abundance fitness of -0.272 ± 0.15.

For the substance “DnaJ homolog subfamily B member 1 E62H, P25685”, the abundance fitness was -0.351 ± 0.081.

Substance “DnaJ homolog subfamily B member 1 E62I, P25685” showed an abundance fitness of -0.378 ± 0.14.

Substance “DnaJ homolog subfamily B member 1 E62M, P25685” came in with an abundance fitness of -0.32 ± 0.11.

In the case of “DnaJ homolog subfamily B member 1 E62N, P25685”, the abundance fitness is -0.567 ± 0.28.

As for “DnaJ homolog subfamily B member 1 E62P, P25685”, the abundance fitness is -0.134 ± 0.079.

“DnaJ homolog subfamily B member 1 E62Q, P25685” showed an abundance fitness of -0.353 ± 0.12.

Take “DnaJ homolog subfamily B member 1 E62R, P25685”: the abundance fitness is -0.344 ± 0.095.

In turn, “DnaJ homolog subfamily B member 1 E62S, P25685” showed an abundance fitness of -0.212 ± 0.077.

In the case of “DnaJ homolog subfamily B member 1 E62V, P25685”, the abundance fitness is -0.218 ± 0.12.

With “DnaJ homolog subfamily B member 1 E62W, P25685”, the abundance fitness is -0.626 ± 0.096.

Regarding “DnaJ homolog subfamily B member 1 E62Y, P25685”, the abundance fitness is -0.552 ± 0.22.

Substance “DnaJ homolog subfamily B member 1 F45A, P25685” showed an abundance fitness of -0.21 ± 0.076.

Consider “DnaJ homolog subfamily B member 1 F45C, P25685”, for which the abundance fitness was -0.351 ± 0.12.

The substance “DnaJ homolog subfamily B member 1 F45D, P25685” came in with an abundance fitness of -0.352 ± 0.076.

“DnaJ homolog subfamily B member 1 F45E, P25685” yielded an abundance fitness of -0.277 ± 0.095.

Take “DnaJ homolog subfamily B member 1 F45G, P25685”: the abundance fitness is -0.247 ± 0.089.

In turn, “DnaJ homolog subfamily B member 1 F45H, P25685” gave an abundance fitness of -0.096 ± 0.17.

“DnaJ homolog subfamily B member 1 F45I, P25685”: the abundance fitness is -0.158 ± 0.07.

In turn, “DnaJ homolog subfamily B member 1 F45K, P25685” registered an abundance fitness of -0.444 ± 0.16.

Substance “DnaJ homolog subfamily B member 1 F45L, P25685” registered an abundance fitness of -0.21 ± 0.055.

For the substance “DnaJ homolog subfamily B member 1 F45M, P25685”, the abundance fitness was -0.305 ± 0.092.

For “DnaJ homolog subfamily B member 1 F45N, P25685”, the abundance fitness is -0.221 ± 0.1.

Regarding “DnaJ homolog subfamily B member 1 F45P, P25685”, the abundance fitness was -0.508 ± 0.072.

In the case of “DnaJ homolog subfamily B member 1 F45Q, P25685”, the abundance fitness is -0.211 ± 0.11.

In the case of “DnaJ homolog subfamily B member 1 F45R, P25685”, the abundance fitness was -0.185 ± 0.062.

Substance “DnaJ homolog subfamily B member 1 F45S, P25685” showed an abundance fitness of -0.143 ± 0.085.

Turning to “DnaJ homolog subfamily B member 1 F45T, P25685”, the abundance fitness was -0.281 ± 0.075.

On to “DnaJ homolog subfamily B member 1 F45V, P25685”, for which the abundance fitness was -0.306 ± 0.061.

Turning to “DnaJ homolog subfamily B member 1 F45W, P25685”, the abundance fitness was 0 ± 0.099.

Consider “DnaJ homolog subfamily B member 1 F45Y, P25685”, for which the abundance fitness is -0.178 ± 0.17.

On to “DnaJ homolog subfamily B member 1 F64A, P25685”, for which the abundance fitness is -0.361 ± 0.3.

Regarding “DnaJ homolog subfamily B member 1 F64Q, P25685”, the abundance fitness is -0.344 ± 0.28.

Turning to “DnaJ homolog subfamily B member 1 F64S, P25685”, the abundance fitness is -0.109 ± 0.23.

The substance “DnaJ homolog subfamily B member 1 F64Y, P25685” returned an abundance fitness of 0.009 ± 0.48.

On to “DnaJ homolog subfamily B member 1 G10C, P25685”, for which the abundance fitness was -0.587 ± 0.26.

“DnaJ homolog subfamily B member 1 G10D, P25685” yielded an abundance fitness of -0.141 ± 0.074.

“DnaJ homolog subfamily B member 1 G10E, P25685” had an abundance fitness of 0.073 ± 0.2.

“DnaJ homolog subfamily B member 1 G10F, P25685” had an abundance fitness of -0.542 ± 0.13.

The substance “DnaJ homolog subfamily B member 1 G10H, P25685” yielded an abundance fitness of -0.378 ± 0.14.

“DnaJ homolog subfamily B member 1 G10I, P25685” returned an abundance fitness of -0.756 ± 0.19.

Turning to “DnaJ homolog subfamily B member 1 G10K, P25685”, the abundance fitness is -0.108 ± 0.1.

The substance “DnaJ homolog subfamily B member 1 G10L, P25685” had an abundance fitness of -0.223 ± 0.058.

“DnaJ homolog subfamily B member 1 G10M, P25685” had an abundance fitness of -0.191 ± 0.085.

Regarding “DnaJ homolog subfamily B member 1 G10N, P25685”, the abundance fitness is -0.333 ± 0.25.

“DnaJ homolog subfamily B member 1 G10P, P25685”: the abundance fitness is -0.926 ± 0.21.

“DnaJ homolog subfamily B member 1 G10Q, P25685”: the abundance fitness is -0.048 ± 0.083.

Consider “DnaJ homolog subfamily B member 1 G10R, P25685”, for which the abundance fitness was -0.239 ± 0.066.

The substance “DnaJ homolog subfamily B member 1 G10S, P25685” gave an abundance fitness of -0.163 ± 0.061.

As for “DnaJ homolog subfamily B member 1 G10T, P25685”, the abundance fitness was -0.564 ± 0.16.

In turn, “DnaJ homolog subfamily B member 1 G10V, P25685” returned an abundance fitness of -0.606 ± 0.087.

For “DnaJ homolog subfamily B member 1 G10W, P25685”, the abundance fitness is -0.704 ± 0.12.

“DnaJ homolog subfamily B member 1 G10Y, P25685”: the abundance fitness was -0.658 ± 0.12.

As for “DnaJ homolog subfamily B member 1 G14A, P25685”, the abundance fitness was -0.353 ± 0.13.

Consider “DnaJ homolog subfamily B member 1 G14C, P25685”, for which the abundance fitness was -0.266 ± 0.12.

As to “DnaJ homolog subfamily B member 1 G14E, P25685”, the abundance fitness was -0.192 ± 0.078.

Turning to “DnaJ homolog subfamily B member 1 G14F, P25685”, the abundance fitness is -0.446 ± 0.2.

The substance “DnaJ homolog subfamily B member 1 G14H, P25685” registered an abundance fitness of -0.133 ± 0.24.

Substance “DnaJ homolog subfamily B member 1 G14I, P25685” gave an abundance fitness of -0.235 ± 0.12.

In the case of “DnaJ homolog subfamily B member 1 G14K, P25685”, the abundance fitness is -0.13 ± 0.093.

With “DnaJ homolog subfamily B member 1 G14L, P25685”, the abundance fitness was -0.266 ± 0.074.

Turning to “DnaJ homolog subfamily B member 1 G14M, P25685”, the abundance fitness was -0.385 ± 0.096.

As for “DnaJ homolog subfamily B member 1 G14N, P25685”, the abundance fitness was -0.232 ± 0.15.

“DnaJ homolog subfamily B member 1 G14P, P25685” came in with an abundance fitness of -0.347 ± 0.12.

In turn, “DnaJ homolog subfamily B member 1 G14Q, P25685” gave an abundance fitness of -0.251 ± 0.091.

Values taken from the Human Domainome abundance scans (Beltran et al. 2025).
